{"source": "patent US20140348829A1", "about": "(CYTODYN, published 2014)", "binders": {"B1": {"name": "Felinized HC 3+Felinized LC 2 (#15) antibody: 7301 (Felinized HC 3) + 7303 (Felinized LC 2) (antibody, IgG1)", "heavy": "QVQLVQSGAEVRKPGASVKIFCKASGYTFTSYYIHWLRQTPEQGREWIGWIYVGDGNTRYNEKFQGRLTLTADKSTSTAYMELSSLRSADTAIYFCARGGNGYFDYWGQDTLVTVSSDIVMTQTPLSLSVTPGEPASISCRASQDVSTALNWYLQKPGQSPRLLIYWASNRHSGVPDRFSGSGSGTDYTLRISRVEADDVGVYYCQQHYSSSLTFGPGTKLEI", "light": "B1 heavy with K13T, L37V, T40S, E42A, I48M, R59K, K63R, I93M, D110G, T111A"}, "B2": {"name": "antibody #6: 7299 (Felinized HC 1) + 7302 (Felinized LC 1) (antibody, IgG1)", "heavy": "B1 heavy with R45L, I48M, E62Q", "light": "B1 heavy"}, "B3": {"name": "antibody #16: 7301 (Felinized HC 3) + 7304 (Felinized LC 3) (antibody)", "heavy": "B1 heavy", "light": "B1 heavy with K13T, L37V, T40S, E42A, I48M, R59K, K63R, I93M, D110G, T111A"}, "B4": {"name": "antibody #14: 7301 (Felinized HC 3) + 7302 (Felinized LC 1) (antibody, IgG1)", "heavy": "B1 heavy", "light": "B1 heavy", "notes": "Fully felinized, feline IgG1/kappa; tested as CHO supernatant"}, "B5": {"name": "antibody #10: 7300 (Felinized HC 2) + 7302 (Felinized LC 1) (antibody)", "heavy": "B1 heavy with R45L, I48M, E62Q", "light": "B1 heavy"}}, "key": {"[1]": {"molecular_target": "feline LFA-1 (CD11a/CD18 heterodimer) (feline)", "assay": "cell binding assay on feline MCH-4 cells, purified antibody; against chimeric #1"}, "[2]": {"molecular_target": "feline LFA-1 (CD11a/CD18 heterodimer) (feline)", "assay": "cell binding assay on feline MCH-4 cells, CHO supernatant; against chimeric #1"}, "[3]": {"molecular_target": "feline LFA-1 (CD11a/CD18 heterodimer) (feline)", "assay": "cell binding assay on feline MCH-4 cells, CHO supernatant, HRP anti-feline IgG"}, "[4]": {"molecular_target": "feline LFA-1 (CD11a/CD18 heterodimer) (feline)", "assay": "cell binding assay on feline MCH-4 cells, purified antibody"}, "[5]": {"molecular_target": "feline LFA-1 (CD11a/CD18 heterodimer) (feline, UniProt A0ABI8A8D3 24-1171; A0ABI7ZVN3 67-787)", "assay": "cell binding assay on feline MCH-4 cells, CHO supernatant, HRP anti-feline IgG"}}, "note": "Changes are numbered by the printed parent chain.", "data": [{"binder": "B1", "values": [{"measurement": "Average fold change over chimeric", "setting": "[1]", "result": 0.76, "unit": "fold"}, {"measurement": "fold less affinity than the chimeric", "setting": "[2]", "result": 3, "unit": "fold"}, {"measurement": "Relative antigen binding (normalized to parental antibody) (relative to parental)", "setting": "[3]", "result": 0.3}, {"measurement": "OD450 at 0.1 ug", "setting": "[4]", "result": 0.86, "unit": "OD450"}, {"measurement": "OD450 at 1 ug", "setting": "[4]", "result": 1.29, "unit": "OD450"}]}, {"binder": "B2", "values": [{"measurement": "Relative antigen binding (normalized to parental antibody) (relative to parental)", "setting": "[3]", "result": 0.05}]}, {"binder": "B3", "values": [{"measurement": "Relative antigen binding (normalized to parental antibody) (relative to parental)", "setting": "[3]", "result": 0.05}]}, {"binder": "B4", "values": [{"measurement": "Relative antigen binding (normalized to parental antibody)", "setting": "[5]", "result": "0.06 relative to parental"}]}, {"binder": "B5", "values": [{"measurement": "Relative antigen binding (normalized to parental antibody) (relative to parental)", "setting": "[3]", "result": 0.05}]}]}
